Data reported in the nanobody polyreactivity screen of Harvey et al. (2022).

assay: yeast display, Sf9 membrane polyspecificity reagent, FACS + sequencing; frameworks hold sequencing errors
Summary of the method: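 Using colony PCR, genes from sorted yeast display clones were amplified, then sequenced on MiSeq at 2 × 250 and filtered by CDR length. The clones had been stained with 10% biotinylated, detergent-solubilized Sf9 membrane reagent for 1 hour at 4 °C and sorted by FACS into low and high (top ~1%) gates on anti-HA and streptavidin fluorescence. Polyreactivity labels come from the gate of origin.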

Q: With “QVQLVESGGGLVHAGGSLRLSCAASGYTFPLYAMGWYRQAPGKERELVAGINWRGGSTYYADSVKCRFTISRDNAKNTVYLQIKSLKPEDTAVYYCAADFSRYYTGGYDYWGQGTQVTVSS” as the sequence, how does the “polyreactivity (PSR sort gate)” value read?
A: low polyreactivity

Q: Which “polyreactivity (PSR sort gate)” value does the source give for “QVQLVESGGGLVHAGGSLRLSCAASGYTFQAYAMGWYRQPPGKERELVAAISFSSGSTYYADSVKGRFTISRDNAKNTVYLQMNSLKPEDTAVYDCATDNWSVNGGYNYWGQGTQVTVSS” here?
A: low polyreactivity

Q: Which “polyreactivity (PSR sort gate)” value does the source give for “QVQLVESGGGLVHAGGSLRLSCAAYGSIFSKYVMGGSREAPGKERELVAAISWSGTRTYYADSVMGRFTISRDNAKNTVYLQMNSLKPEDTAVYYCAARRLYSGHQYDYWGQGTQVTVSS” here?
A: high polyreactivity

Q: For “QVQLVESGGGLVHAGGSLRLSCAAYGSIFYSYAMGWYRQAPGKERELVAAITSVGNTNYADSVKGRFTISRDNAKNTVYLQMNSLKPEDTAVYYYWGQGTQVTVSS”, which “polyreactivity (PSR sort gate)” value is on record?
A: low polyreactivity

Q: With “QVQLVESGGGLVHAGGSLRLSCADSGSTLGSNAMGWYRQAPGKERELVAAITWSGGTTYYADSVKGRFTISRDNAKNTVYLQMNSLKPEDTAVYYCATGQSVIYRYEYWGQGTQVTVSS” as the sequence, how does the “polyreactivity (PSR sort gate)” value read?
A: low polyreactivity

Q: With “QVQLVESGGGLVHAGGSLRLSCAPSGRTFPRYAMGWYRQAPGKERELVAAISVRAGITYYADSVKGRFTISRDNAKNTVYLQMNSLKPEDTAVYYCDKEHSSTSYDEGDYWGQGTQVTVSS” as the sequence, how does the “polyreactivity (PSR sort gate)” value read?
A: low polyreactivity

Q: With “QVQLVESGGGLVHAGGSLRLSCASSGSALFWNAMGWYRQAPGKERELVATITNSGGSTYYADSVKGRFTISRDNAKNTVYLQMNSLKPEDTAVYYCNADESAYWKLRHGLGSDSWGQGTQVTVSS” as the sequence, how does the “polyreactivity (PSR sort gate)” value read?
A: low polyreactivity

Q: For “QVQLVESGGGLVHAGGSLRLSCDASGIIFFIYTMGWYRQAPGKERELVAVITRGGRTNYADSVKGRFTISRDNAKNTVYLQMNSLKPEDTAVYYCAAKGSRSYYWGQGTQVNVSS”, which “polyreactivity (PSR sort gate)” value is on record?
A: high polyreactivity

Q: Which “polyreactivity (PSR sort gate)” value does the source give for “QVQLVESGGGLVHAGGSLRLSCDASGITFGPYGMGWYRQAHGKEREFVATITTIGGITYYADSVKGRFTISRDNAKNTFYLQMNSLKPEDTAVYYCAAPWFHGYDALVDYWGQGTQVTVSS” here?
A: low polyreactivity

Q: With “QVQLVESGGGLVHAGGTLRLSCAASGGIFYHYTMGWYRQAPGKERELVASIRVSGGRTYNADSVTGRFTISRDNAKNTVYLQMNSLKPQDSAVYFCNARGSWYQPTYDYWGQGTQVTVSS” as the sequence, how does the “polyreactivity (PSR sort gate)” value read?
A: high polyreactivity

Q: For “QVQLVESGGGLVHEGGSLRLSFAASGPTFYRYTMGWYRQAPGKERELVATITGGGSTNYADSVKGRFTISRDNAKNTVYLQMNSLKPEDTAVYYCARAVVQSRGPPRYKTPYDYWGQGTQVTVSS”, which “polyreactivity (PSR sort gate)” value is on record?
A: low polyreactivity

Q: For “QVQLVESGGGLVKAGGILRLICVASGRTFLRYGMGWYRQAPGKERELVAAISIVGNTYYADSVKGRFTISRDNAKNTVYLQMNSLKPEDTAVYYCAAGRRFGRDYWGQGTQVTVSS”, which “polyreactivity (PSR sort gate)” value is on record?
A: high polyreactivity

Q: With “QVQLVESGGGLVKAGGILRLSCAASGSTFWKYAMGWYRQAPGKERELVAAINSGGSTYYADSVKGRFTISRDNAKNTVYLQMNSLKPEDTAVYYCAAVYVDRRKRSYYWGQGTQVTVSS” as the sequence, how does the “polyreactivity (PSR sort gate)” value read?
A: high polyreactivity

Q: Which “polyreactivity (PSR sort gate)” value does the source give for “QVQLVESGGGLVKAGGRLRLSSAASGSIFASYSIGWYRQAPWKERELVAAITVRGGRTYYADSVKGRFTISRDNAKNTVYLQMNSLKPEDTAVYYCAAVGKNRSWYDYWGQGTQVTVSS” here?
A: high polyreactivity

Q: With “QVQLVESGGGLVKAGGSLRFSCAASGSIFHPYELGWKTQAPRKESDLVAGISRSGTSTYYADSVKGRFTISRDNAKNTVYLQMNSLKPEDTAVYYCYKVLVGSNRGEYDYWGQGTQVTVSS” as the sequence, how does the “polyreactivity (PSR sort gate)” value read?
A: low polyreactivity

Q: For “QVQLVESGGGLVKAGGSLRLSCAASGFIFKRNVMGWYRQAPGKETELVARISSRGGSTYYADSVKGRFTISRDNAKNTVYLQMNSLKPEDTEVYYCAADFGTIRVYSGDYWGQGTQVTVSS”, which “polyreactivity (PSR sort gate)” value is on record?
A: high polyreactivity

Q: With “QVQLVESGGGLVKAGGSLRLSCAASGFIFTQNAMGWYRQAPGKERELVAAISGTGGSTYYADSVKGRFTISRDNAKNTVYLQMNSLKPEDTAVYYCAARRRQEHVGRSSYARYDYWGQGTQVTVSS” as the sequence, how does the “polyreactivity (PSR sort gate)” value read?
A: high polyreactivity

Q: Which “polyreactivity (PSR sort gate)” value does the source give for “QVQLVESGGGLVKAGGSLRLSCAASGFISSSYAMGWYRQAPGKERELVAVITRSGGSTYYADSVKGRFTISRDNAKNTVYLQMNSLKPEDTGVYYCNTDARSKKYIFDFDYWGQGTQVTVSS” here?
A: high polyreactivity

Q: With “QVQLVESGGGLVKAGGSLRLSCAASGFTIVYYAMGWYIQAPGKERELVAAISATGGRTYYADSVKGRFTISRDNAKNTVYLQMNSLKPEDTAVYYCATRRRVLYGYDYWGQGTQVTVSS” as the sequence, how does the “polyreactivity (PSR sort gate)” value read?
A: high polyreactivity

Q: Which “polyreactivity (PSR sort gate)” value does the source give for “QVQLVESGGGLVKAGGSLRLSCAASGLTFAINTMGWYRQSRGKERELVAAITGSGGSTYYADSVKGRFTISRDNAKNTVYLQMNSLKPEDSAVYYCAAELLYVQGYAMDYWGQGTQVTVSS” here?
A: low polyreactivity

Q: With “QVQLVESGGGLVKAGGSLRLSCAASGRIFGYYAMGLDRQAPGQERELFAAITWSGGRTYYADSVKGRFTISRDNAKNTVYLQMKSLKPEDTAVYYCAAKTLGQQRKFDYWGQGTQVTVSS” as the sequence, how does the “polyreactivity (PSR sort gate)” value read?
A: high polyreactivity

Q: With “QVQLVESGGGLVKAGGSLRLSCAASGRTFLRNAMGWYRPAPGKERELVATITRGGSTYYADSVKGRFTISRDNAKNTVYLQMNSLKPEDTAVYYCAKDITGGFRRPDYGYWGQGTQVTVSS” as the sequence, how does the “polyreactivity (PSR sort gate)” value read?
A: low polyreactivity

Q: For “QVQLVESGGGLVKAGGSLRLSCAASGRTFSSNAMGWNRQAPGKERELVAAISSSGAGTYYADSVKGRFTISRDNAKNTVYFQMTILKPEDSAVYYCAARANSYHSFTSPYDYWGQGTQVTVSS”, which “polyreactivity (PSR sort gate)” value is on record?
A: low polyreactivity

Q: Which “polyreactivity (PSR sort gate)” value does the source give for “QVQLVESGGGLVKAGGSLRLSCAASGSIFPDNAMGWYRQAPGKERELVAAISEGSTSTYYADSVKGRFTISRDNAKYTVYLQMNSLKPEDTAVYYCAADYDTGYEYWGQGTQVTVSS” here?
A: low polyreactivity

Q: Which “polyreactivity (PSR sort gate)” value does the source give for “QVQLVESGGGLVKAGGSLRLSCAASGSIFPYNAMGWYRQAPGKERELVATISSGGSTNYADSVKGRFTISRDNAKNTVYLQMNSMKPEDTAVYYCAADVSVFYYAPNYWGDIEYGYWGQGTQVTVSS” here?
A: low polyreactivity

Q: Which “polyreactivity (PSR sort gate)” value does the source give for “QVQLVESGGGLVKAGGSLRLSCAASGSIIKRYAMGWYRQARGKERELVAAITQSGGRTYYADSVKGRFTISRDNAKNTVYLQMNSLKPEDTAVYYCNAVRWYLYDYWGQGTQVTVSS” here?
A: high polyreactivity

Q: For “QVQLVESGGGLVKAGGSLRLSCAASGSIITIYAMGWYRQAPGKERDWVATITGGGGSTYYADSVKGRFTISRDNAKNTVYFKMNSLKPEETAVYYCAADSPGWSYTSRSYDYWGQGTQVTVSS”, which “polyreactivity (PSR sort gate)” value is on record?
A: low polyreactivity

Q: With “QVQLVESGGGLVKAGGSLRLSCGASGSIFDFYVMGWYRQAPGKERELVGAISSGGSTYYADSVKGRFTISRDNAKHTVYVQMNSLKPADTAVYYCAAYPEYVSGAWYDYWGQGTQVTVSS” as the sequence, how does the “polyreactivity (PSR sort gate)” value read?
A: low polyreactivity

Q: With “QVQLVESGGGLVKAGGSLRLSSAASGRILYGNAMGGYRQAPGKERELVAANTRRGGSTYYADSVKGRFTISRDNAKNTVSLQMNSLKPEDTAVYYCAASRYTSYYKDGCYAYYYWGQGTQVTVSS” as the sequence, how does the “polyreactivity (PSR sort gate)” value read?
A: high polyreactivity

Q: Which “polyreactivity (PSR sort gate)” value does the source give for “QVQLVESGGGLVKEGGSLRLSCAASGNTIRVNAMGWYRQAPGKERELVAAISFSGGRTYYADSVKGRFTISRDNAKNTVYFQMNSLKPEDTGVYYCAALRRYPRPFIYGYWGQVTQVTVSS” here?
A: low polyreactivity

Q: Which “polyreactivity (PSR sort gate)” value does the source give for “QVQLVESGGGLVKEGGSLRLSCAASGRIFGPYAMGWYRQAPGKERELVAVITNSGSTNYADSVKGRFTISRDNAKNSVYLQMNCLKPEDTAVYYCNRFEGGAYGSNFDYWGQGTQVTVSS” here?
A: high polyreactivity

Q: With “QVQLVESGGGLVLAGASLRLSCAPSGFIFVRYAMGWYRAAPGKERELVAAISSGGSTKYADSVKGRFTISRDNAKNTVYLQMNSLKPEDTAVYYCAADATPGRGVDYWGQGTQVTVSS” as the sequence, how does the “polyreactivity (PSR sort gate)” value read?
A: high polyreactivity
